Measured values taken from article PMC8196545 (Cell reports, 2021).
Changes are numbered by the printed parent chain.

B1: c7484 (antibody, V domains shown)
VH: AVHLTQSGTEVKRPGTSVRISCKGSGFVFRDSFIYWLRQAPGKGPQYLGLIDPGNADTVYPDNFKDRVSITADTSVSTTYLELRRLQFDDTALYFCATTTYCSADSCELALDVWGQGTTVTVSS
VL: QSLLTQPPSASGAPGQSVTISCSGGASNIENNYVVWYQQVPGTAPKLIIYQDNVRPSGVPDRFSGSKSGASGSLLISGLRSEDEADYYCSSWDDSVRGPLFGGGTKVTVL
B2: c8597 (antibody, V domains shown)
VH: EVKLEASGGGLAQPGQSLRLSCIGSGFKFADYGLSWVRQTPGKGLQWVGFIRGRGSEATKHYAASVAGRFSMSRDDSKNIAYLQMKNLKTYDTGVYYCAREQYSFDFWSGYEDPYYYYMDLWGRGTTVTVSS
VL: DIQMTQSPAALSASIGDRVTISCRASQNIRDWVAWYQQKPGKAPNLLIYRASTLQTAIPSRFSASGFGTDFTLTISSLQPDDFATYFCQHYNSHFTGYSFGQGTKLEIK
B3: c13155 (antibody, V domains shown)
VH: DVQLLESGGGLVQPGGSLRLSCAGSGYPFSTSDMGWVRQAPGKGLEWVAAIGRSGDGIHYAESVKGRFTISRDNSNNSIYLQMSDLRGDDTGVYYCAKSGWGWCKRGSCSLTVDYWGQGALVTVSS
VL: EIVLTQSPATLSLSPGERATFSCRASQSVGSYLAWYQQKVGQSPRLLIYDSVNRGEGIPGRFSGRGVGTDFTLTIDAVEPEDFAVYYCQQRQIWPLTFGGGTKLEIK
B4: c8553 (antibody, V domains shown)
VH: QVQLVQSGAEMKMPGSSVKVSCKTSGGTFGSDSLNWVRQAPGQGLEWMGAIIPVFRTATYAQKFQGRVTITADTSTSTVSMDFYNLKSEDTAVYFCARFLLTSGDDIRDFFDLWGPGTMVTVSS
VL: PSELTQDPAVSVPLGQTVKISCRGDNLGTYYTSWYQQKAGQAPLAVIYGDNKRPSEIPERFSGSSSGNTASLTITGARAEDEADYYCNSRDKSGSHVVFGGGTKLTVL
B5: c5407 (antibody, V domains shown)
VH: QMQLQESGGGRVRPLETLSLACSVSGGSISGDGYYWTWIRQTPGRALEWIGHIHHYGITNYNPSLKSRLTISLDKPKNQFFLTLTSVTVADTALYFCARTFYTFWSGPHDFLDLWGHGTAVIISL
VL: EIVMTQSPVTLSASPGERVALSCRASQSISTKLAWYQQRPGQAPTLLISGASSRASGTPARFSGSGSGADFTLTISTLQPEDFVLYFCQQYKEWPLTFGPGTKLEIK
B6: c9368 (antibody, V domains shown)
VH: QMQLVQSGAELKKPGSSVKVSCKASGGTVSSESVSWVRQAPGHGLEWMGGIIPMFGATNYAQRFQGRVTITADTSTSTAYMELRGLKFEDTAMYYCAREGDPGDYDSGRGLSNAFDIWGQGTMVSVSS
VL: EIVMTQSPGTLSVSPGERATLSCRASQSVSSNLAWYQQKPGQAPRLLIYGASTRATGIPARFIGSGSGTEFTLTISSLQSEDLAIYYCQQYNSWPPQYTFGQGTKLEIK
B7: c9433 (antibody, V domains shown)
VH: QVQLVQSAAELRKPGESVKVSCKASGYRFTSYAISWVRQAPGQGLEWMGWMSPHSRTANYAQRFQGRVTMTTDTSTSTASMELRTLRSDDTAIYYCARRVYDWDIKETRLDPWGQGTLVTVSS
VL: not shown
B8: c754 (antibody, V domains shown)
VH: QVQLVQSGPEVKKPGASARVSCKASGYMFSNNGISWVRQAPGQGLEWMGWISPQNGETLYAHKFQGRVSLTMDTSTNTAFLELTRLRSDDTAVYFCAREAHEDCGEENCFAETWLDTWGQGTQIIVSS
VL: QSVLTQPPSASGTPGQRITMPCSGSNSNIGRRSVCWFQQFPGAAPKVVLYKDSQRPSGVPDRFSGSKSGTSASLTISGLRSDDEADYFCAAWDDSLNVWAFGGGTKLTVL
B9: c8452 (antibody, V domains shown)
VH: EVQLDQSGAEMRKPGTTVKISCKVSGYTTTTDYYVHWVQQAPGKGPQWVGLINVEDGDTIYAEAFQGRVSITADTSKRRVFLDLSGLTSEDSALYFCTTQSLETDTGDYVSAFDSWGQGTLVSVSP
VL: QSVLTQPPSVSAAPGQKVIISCSGRTSSVGTNFVSWYQQVPGAAPKLLIYDNENRPSGISDRFSASTSGTSATLAITALQSGDEADYYCGTWDSGLNPAIFVFGTGTRVSVL
B10: c6539 (antibody, V domains shown)
VH: QVRLIQSGTEVARPGSSVRVSCQVPGDILDKNAVAWVRQAPGQVPEFMGGLPSNFAYGVRAQKFEDRLSIIPDRSTNTVDMILRSVTSHDTAIYYCVTCPHRTTVIMSFYFEFWGQGTLVAVSS
VL: DVTVTQSPASVSASVGDRVTISCRASEDLMGRLAWYQQKPGHAPKLLISHTSTLQSGVPSRFTGSGSGADFTLTISSLQPEDSATYYCQQAQRFPPTFGQGTRLEIK
B11: c8582 (antibody, V domains shown)
VH: QVHLVQSGAEVKKPGSSVKVSCKASGGSFSDYGISWVRQAPGQGLEWMGGIIPGFETTKFAQGLQGRLTMTADESSSTAYMVLNRLRPQDTGVYYCATTGQQNDYYSSGTSYKLNFYFGMDVWGQGTTVTVSS
VL: QSVLTQPPSSSGTPGQRVTITCSGGSSNIETNSVHWYQQLPGAAPKTVISATHQRPSGVPDRFSASKSGASASLAISGLQSEDEADYYCAVWDDSLNTWVFGGGTKLTVL
B12: c8603 (antibody, V domains shown)
VH: AVQFLQSGAEVKKPGESLKISCQDRGYGFNDYWIAWVRQMPGKGLEWMGLIYPDDSDTRYSPSFQGQVTILADKSINTAYLQWNSLKASDSAIYYCARLMVVDERSENTFDIWGQGTVVTVSS
VL: SSGLTQSPSLSVSPGQTATVTCSGDPLVNHFASWYQQQPGQSPILVIYQDNQRPSGIPERFSGSKTGNTATLTIGETQAADEADYFCQSWDITTAGMIFGGGTKLTVL
B13: c32045 (antibody, V domains shown)
VH: AVQLLESGGGLVKPGGSLRLSCAASGFTFGSYAMHWVRQAPGKGLEWVSSINISSTTYMYYSDSLKGRFTISRDNAKKTLYLQMASLRPEDTAVYYCVREATYCGSQCYSRYFDFWGSGTLVAVSS
VL: DIQMTQSPPSVSAGVGDRVTITCRASQTISGFLSWYQQKPGKAPKLLIYAASTLHSGVPSRFSGSGSGTDFTLTISSLQPEDFATYYCQQSYSAPRTFGQGTKLEIK
B14: c8517 (antibody, V domains shown)
VH: QVTLKESGPTLLRPADTLTLTCNFSGFSLTTDGVALGWMRQSPGKAPEWLAFLFYDDDKQYNPHLKSRLIISKASSTNQLVLAMTNMGPGDAGTYFCARLNVLVHDVPPRNYGLDVWGRGITITVSS
VL: DIVLTQSPVSLSVTPGQSASMSCKSSETLLHEDGKSYLYWYLQKPGQSPQLLIYEASKRFSGVSDRFTASGTGTHFTLQIDRVEVDDVGVYYCMENLKALTFGGGTRMEIK
B15: c27194 (antibody, V domains shown)
VH: QVHLVQSGDELKKPGSSVKVSCTAAGGTLNKYPITWVRQAPGQGLEWMGTLSPLFGTTDYGQKFQGRLTITTDGSAAHMVLAALTPDDTAVYFCATDKAMGVLPALHFWGQGTLITVSS
VL: EIVLTQSPGTLFLSPGERASLSCRASQNIGGLLAWYQQKPGQSPRLLIYDASNRATGIPARFSGSGSGTDFTLTISSLEPGDIAIYFCQQRSSWPVTFGGGTKVQIK
B16: c5482 (antibody, V domains shown)
VH: EVQLVESGGGLAQPGGSLRLSCAASGFDFNNYWFYWVRQAPGRGLVWVARVNADGSNTRYVDSVRGRFTISRDSAKKIVYLEMNSVRDEDTAIYYCSRDTFVRVSSTHGYWSGMDVWGHGTTVTVAS
VL: SNELTQPPSVSVSPGQTATITCSGDVLSRQFVYWYQQKPGRAPVLVMYKDNERPSGIPERFSASSSGTRVTLTISGVQAEDEADYYCQSADNNGAHVFGTGTSVIVL
B17: c9596 (antibody, V domains shown)
VH: EVQLVQSGAEVKKPGTTIKISCKVSGYSFTDSFIHWLKQTPGKGPEWMGLIDPEASDGNKLYAERFQGRLTITADTTTDTAYMELSSLTSDDTAIYYCASQSPSFSDNSRFYGFFDHWGQGTLVNVAS
VL: DIVMTQSPDSLTVSLGERATFNCKSSQSVLDSSDNKNYLSWYQQKPGRPPKLLIYWASIRRSGVPDRFSGSGSGTDFTLTISSLQAEDAAVYFCQQYHTAPFTFGPGTKVDIK
B18: c2785 (antibody, V domains shown)
VH: QVQLVQSGAEMKKPGSSVKVSCKASGGSFRSFTVNWVRQAPGQGLEWVGRIIAIFGSVDYAQKFQGRVTISADESTSTFYMDIRSLKSEDTAVYYCVRDGLVGGRDFWGQGTQVTVSS
VL: EIVLTQSPGTLSLSPGERATLFCRASQSIKKNYVAWYQQNPGQAPRLLIYGASSRATGTPDRFSGSGSGTDFTLTISRLEPEDFAVYYCQQYGSAQYSFGQGTKLEIK
B19: c7487 (antibody, V domains shown)
VH: AVTLRQSASEVKKPGTTLKMSCKGSGFSFAESFIYWFRQAPGKRPEYLGLIVPGVSDTVYPDNLKARVAITADTSIETVYLQLSSLTSEDTAVYFCATTTYCSPETCEVAFDVWGQGTTIIVSA
VL: QSALTQPPSASGTPGQRVTIPCSGGSSNVGNNFVSWYQQLPGTAPRLLIYQDNVRPSGVPDRFSGSKSGASASLVISGLRSEDEADYYCCSWEDSLRGPLFGGGTKVTVL
B20: c9517 (antibody, V domains shown)
VH: QVKLQESGPGLVKPSETLSLTCVVSGVSISQSDYFWNWLRQTPGKGLEWLGFISYSGDSFFNPSLGSRLAMSVDTSSNHISLSLKSMTAADAAVYYCARTFCDDVKCYPLFDSWGHGKLVAVSS
VL: DIVMTQSPDSLPLSPGERASINCQSSQSVLYSSDNRNYLAWYQLKPGQPPKLLIYWASVRASGVPDRFSGSGSGTDFTLSISSLQAEDVAVYYCQQYYITPYSFGQGTKVEIR
B21: c8595 (antibody, V domains shown)
VH: B20 VH with S59T, G66E, A70G
VL: B20 VL
B22: c11461 (antibody, V domains shown)
VH: AGHLVESGGKLIRPGGSLSLSCVASGFTFRNAHMTWVRQVPGQGLEWIALMKSHADGSHTDYSPSVKNRCAISRDDSTSSLYLHLYNLQLDDTGIYFCVHLSSPDEWGLGTPVTVYS
VL: HIVLTQSPVTLSGSQGDTVALSCRANESLRSHLAWYQQRPGQRPKLLIYEVSRRPPATPPRFSGSGSGTDFTLIIRGLEPEDSAVYYCQQGDFWPFSFGQGTNLEIT

Biological target: HIV-1 NL4-3 Env on infected cells (HIV-1 group M subtype B, NL4-3 (pNL4-3 …, strain))

Row | Binder | binding result
1 | B1 | binds
2 | B2 | binds
3 | B3 | binds
4 | B4 | binds
5 | B5 | binds
6 | B6 | binds
7 | B7 | binds
8 | B8 | binds
9 | B9 | binds
10 | B10 | binds
11 | B11 | binds
12 | B12 | binds
13 | B13 | binds
14 | B14 | binds
15 | B15 | binds
16 | B16 | binds
17 | B17 | binds
18 | B18 | binds
19 | B19 | binds
20 | B20 | binds
21 | B21 | binds
22 | B22 | binds
